Laboratory results: US20240358767A1, “STEM CELL DIFFERENTIATION AND CHEMICAL COMPOUNDS” (VERTEX PHARMACEUTICALS INCORPORATED, priority 2021, published 2024)
Several values for one entry are separate records, joined by “and”; a condition that tells them apart may be missing. Equal values may be shown once.

How the values were obtained:
[1] = system: human stem cells; experiment: Stage 1 differentiation of stem cells (Version A protocol), flow cytometry of Oct4 and Sox17 at completion of Stage 1 (S1C); assay type: cell-based
Protocol: (§1) An exemplary base differentiation protocol, Version A, according to the present disclosure, was used for differentiating human stem cells into mature β cells capable of releasing insulin in response to glucose challenge in vitro.
(§2) Version A protocol is a 6-stage stepwise protocol. With Version A protocol, stem cells were treated with reagents in a manner similar to the Version A described in Example 1 of U.S. Patent Publication No. US20220090020A1, which is incorporated by reference herein in its entirety. In some experiments, Version A was modified such that 100 ng/mL Activin A at Stage 1 was replaced with a different concentration of Activin A as described below.
(§3) In one experiment, differentiation of the stem cells was initiated in spinner flasks using Version A protocol, and three different concentrations of Activin A (“AA”), 100 ng/mL (100%), 10 ng/mL (10%), and 5 ng/mL (5%), applied throughout the three days of Stage 1 were tested, while the remaining differentiation steps were kept the same. On QC days, e.g., upon completion of Stage 1 (“S1C”), completion of Stage 3 (“S3C”), or completion of Stage 5 (“S5C”), the cells were examined for their morphology and cell constituents. Specifically, 5 mL of cell cluster suspension solution were taken from the spinner flask, with 1 mL suspension aliquoted into a 24 well plate. Pictures of the cell clusters in the 24-well plate were taken under brightfield microscope. The cell clusters in the remaining 4 mL suspension were dispersed with TrypLE Express (Life Technologies; 12,604,013) at 37° C. for 20 min, fixed with 4% PFA for 20 mins at 4° C., blocked for 1 hour in FACS buffer (5% Donkey Serum and 0.05% Triton-100 in PBS) at room temperature, and stained with various antibodies against cell markers. Stained cells were then measured using an Accuri 6 flow cytometer (BD Biosciences) and analyzed using FlowJo software.
In another experiment, a dose-response test was conducted to examine the effects of different concentrations of Activin A at Stage 1 on stem cell differentiation. Five different concentrations of Activin A were tested: 100 ng/mL (100%), 20 ng/mL (20%), 10 ng/mL (10%), 5 ng/mL (5%), and 0 ng/mL (0%).
(§4) In one experiment, four different conditions for Stage 1 differentiation were tested: 100% Activin A, 10% Activin A, 10% Activin A plus GSK-690693 (“GSK”), or 10% Activin A plus BYL719 (“BYL”). Characterization of cell morphology and cell constituents were conducted similarly as described in EXAMPLE 1. The experiment was repeated for four times. Table 3 summarizes the quantification of flow cytometry analysis results at S1C, S3C, and S5C, and total viable cell yield at S5C for the four runs. In all the four runs, 0.1 μM […] or 0.04 μM BYL719 was applied for 3 days of Stage 1, except that in the last two runs, Run 4 and Run 5, 0.04 μM of BYL719 was applied for only 2 days (days S1d1 and S1d2).
(§5) In one experiment, six different conditions for Stage 1 differentiation were tested: 100% Activin A, 10% Activin A, 10% Activin A plus GSK-690693, 10% Activin A plus BYL719, 10% Activin A plus GSK-690693 and BYL719, or 100% Activin A plus GSK-690693 and BYL719. Characterization of cell morphology and cell constituents were conducted similarly as described in EXAMPLE 1. FIGS. 2A-5E and Table 4 summarize the characterizations of the cells obtained under the six differentiation conditions at different stages.

[2] = system: human stem cells; experiment: Version A differentiation, flow cytometry of Pdx1, Cdx2 and Sox2 at completion of Stage 3 (S3C); assay type: cell-based; details: for S3C Pdx1: Runs 3-5
Protocol: as §1, §2, §3, §4, §5

[3] = system: human stem cells; experiment: Version A differentiation, flow cytometry of Nkx6.1 and Isl1 at completion of Stage 5 (S5C); assay type: cell-based
Protocol: as §1, §2, §3, §4, §5

[4] = system: human stem cells; experiment: Total viable cell yield at S5C; assay type: cell-based
Protocol: as §1, §2, §4

[5] = system: human stem cells; experiment: Version A differentiation, flow cytometry of Nkx6.1 and Isl1 on day 7 of Stage 6 (S6d7); assay type: cell-based; details: for S6d7 Nkx6.1 + /Isl1+: day 7 of Stage 6
Protocol: as §1, §2, §3, §5
In another experiment, the effects of the aforementioned six different conditions for Stage 1 differentiation on Stage 6 differentiation were tested under two Stage 6 medium regimens: regimen 1 (Table 5) and regimen 2 (Table 6).

[6] = system: Stem cells; experiment: 384-well screen of small molecule compounds for Stage 1 differentiation to Sox17-positive definitive endoderm cells (immunostaining, DAPI)
Protocol: In one experiment, more than 2100 small molecule compounds (“test compounds”) from a small molecule chemogenomic library were tested for their effects on Stage 1 differentiation from stem cells to Sox17-positive definitive endoderm cells. […] Each test compound was tested at about 8 different concentrations. The resulting cell population in each well was then examined by immunostaining and image analysis to determine the percentage of cells expressing Sox17 and/or Oct14 (via immunostaining of Sox17 and Oct 14), and total cell count (via DAPI staining). […] Quantification thresholds correspond to staining signal and were defined as low, normal, or high. Low indicates a low threshold was set for dectection of Sox17+ staining (i.e., easy to detect Sox17+) and high would be only highest expressing Sox17+ cells are detected.

[7] = system: human stem cells; experiment: Cell cluster morphology under brightfield microscope; assay type: cell-based
Protocol: as §3

[8] = 10% AA (10 ng/mL Activin A) plus the compound(s) at Stage 1
[9] = Stage 6 Regimen 1, 10% AA plus the compound(s) at Stage 1
[10] = Stage 6 Regimen 2, 10% AA plus the compound(s) at Stage 1
[11] = 10 ng/mL AA plus test compound, about 8 concentrations, dose-responsive manner
[12] = 5% Activin A (5 ng/mL) throughout Stage 1
[13] = 10% AA (10 ng/mL Activin A) at Stage 1
[14] = 10% Activin A (10 ng/mL) throughout Stage 1
[15] = 100% AA (100 ng/mL Activin A) at Stage 1
[16] = 100% Activin A (100 ng/mL) throughout Stage 1
[17] = reduced concentrations of Activin A (10% or 5%) vs 100%
[18] = Stage 6 Regimen 1, 10% AA (10 ng/mL Activin A) at Stage 1
[19] = Stage 6 Regimen 1, 100% AA (100 ng/mL Activin A) at Stage 1
[20] = Stage 6 Regimen 2, 10% AA (10 ng/mL Activin A) at Stage 1
[21] = Stage 6 Regimen 2, 100% AA (100 ng/mL Activin A) at Stage 1

CCn1c(-c2nonc2N)nc2c(C#CC(C)(C)O)ncc(OC[C@H]3CCCNC3)c21 [GSK-690693]
S1C Sox17+/Oct4− ([1]; 0.1 μM GSK for 3 days of Stage 1 plus 10% AA (10 ng/mL Activin A), Runs 2-5, listed as GSK): 69 and 84.9 and 91.6 and 60 | S1C Sox17 + /Oct4+ [1, 8]: 2.86% | S1C Sox17+/Oct4− [1, 8]: 91.6% | S3C Pdx1 ([2]; 0.1 μM GSK for 3 days of Stage 1 plus 10% AA (10 ng/mL Activin A), listed as GSK): 57.5 and 91.1 and 89.4 | S3C Pdx1 + /Cdx2+ [2, 8]: 6.70% | S3C Pdx1 + /Sox2+ [2, 8]: 37.3% | S5C Nkx6.1+/Isl1+ ([3]; 0.1 μM GSK for 3 days of Stage 1 plus 10% AA (10 ng/mL Activin A), Runs 3-5, listed as GSK): 31.1 and 35.6 and 28.5 | S5C Nkx6.1+/Isl1+ [3, 8]: 28.5% | St5C yield ([4]; 0.1 μM GSK for 3 days of Stage 1 plus 10% AA, Runs 4-5, listed as GSK): 3.02e+06 mL⁻¹ and 5.4416e+06 mL⁻¹ | S6d7 Nkx6.1 + /Isl1+ [5, 8]: 34.8% | Markers on S6d7 Isl1 + /Nkx6.1+ [5, 9]: 34.8 | Markers on S6d7 Isl1 + /Nkx6.1− [5, 9]: 8.17 | Markers on S6d7 Isl1 + /Nkx6.1+ [5, 10]: 36.3 | Markers on S6d7 Isl1 + /Nkx6.1− [5, 10]: 8.17 | signal in Oct 4 channel [6, 11]: decrease | signal in Sox17 channel [6, 11]: increase | Relative to 100 ng/mL AA (percentage of Sox17-positive cells normalized by the percentage with 100 ng/mL AA) ([6]; Stage 1 condition with 10 ng/mL AA and the test compound, 384-well plates): 119% | nuclear blebbing in the resulting cell population ([6]; visual inspection): not to induce

B1: Activin A: growth factor from the TGF-β superfamily; exemplary sequences SEQ ID NO: 1-15 in Table 1 (protein, UniProt P08476 311-426, looked up)
Inhibin beta A chain: GLECDGKVNICCKKQFFVSFKDIGWNDWIIAPSGYHANYCEGECPSHIAGTSGSSLSFHSTVINHYRMRGHSPFANLKSCCVPTKLRPMSMLYYDDGQNIIKKDIQNMIVEECGCS
modifications: Inhibin beta A chain
S1c − Oct4−/Sox17+ [1, 12]: 76.4% | S1C Sox17 + /Oct4+ [1, 13]: 3.29% | S1C Sox17+/Oct4− [1, 13]: 87.1% | S1C Sox17+/Oct4− ([1]; 10% AA (10 ng/mL Activin A) at Stage 1, Runs 2-5, listed as AA): 61.6 and 80.5 and 87.1 and 73.8 | S1c − Oct4−/Sox17+ [1, 14]: 87.1% | S1C Sox17 + /Oct4+ [1, 15]: 3.41% | S1C Sox17+/Oct4− [1, 15]: 79.1% | S1C Sox17+/Oct4− ([1]; 100% AA (100 ng/mL Activin A) at Stage 1, Runs 2-5, listed as AA): 78.2 and 88.2 and 79.1 and 84.5 | S1c − Oct4−/Sox17+ [1, 16]: 79.1% | percentage of Oct4-negative, Sox17-positive cells at S1C ([1]; among 100%, 10% and 5% Activin A): not significant difference | percentage of Sox17−/Oct4+ cells at S1C ([1]; dose-response test, 100% Activin A (100 ng/mL) at Stage 1): under 1% | percentage of Sox17−/Oct4+ cells at S1C ([1]; dose-response test, Activin A reduced from 100% to 20%, 10%, or 5%): did not change significantly | percentage of double negative cells (Sox17-negative, Oct4-negative) at S1C ([1]; dose-response test, reduced Activin A (20%, 10%, and 5%) vs 100%): increase | S3c − Cdx2+/Pdx1+ [2, 12]: 27.0% | S3c− Sox2+/Pdx1+ [2, 12]: 9.76% | S3c − Cdx2+/Pdx1− ([2]; 5% Activin A (5 ng/mL) throughout Stage 1, first line with this head (r7)): 6.22% | S3c − Cdx2+/Pdx1− ([2]; 5% Activin A (5 ng/mL) throughout Stage 1, second line with this head (r9)): 3.63% | S3C Pdx1 + /Cdx2+ [2, 13]: 32.7% | S3C Pdx1 + /Sox2+ [2, 13]: 3.89% | S3C Pdx1 ([2]; 10% AA (10 ng/mL Activin A) at Stage 1, listed as AA): 56.9 and 93.3 and 75.8 | S3c − Cdx2+/Pdx1+ [2, 14]: 32.7% | S3c− Sox2+/Pdx1+ [2, 14]: 3.89% | S3c − Cdx2+/Pdx1− ([2]; 10% Activin A (10 ng/mL) throughout Stage 1, first line with this head (r7)): 1.28% | S3c − Cdx2+/Pdx1− ([2]; 10% Activin A (10 ng/mL) throughout Stage 1, second line with this head (r9)): 1.90% | S3C Pdx1 + /Cdx2+ [2, 15]: 3.21% | S3C Pdx1 + /Sox2+ [2, 15]: 38.8% | S3C Pdx1 ([2]; 100% AA (100 ng/mL Activin A) at Stage 1, listed as AA): 72.7 and 95.3 and 84.61 | S3c − Cdx2+/Pdx1+ [2, 16]: 3.21% | S3c− Sox2+/Pdx1+ [2, 16]: 38.8% | S3c − Cdx2+/Pdx1− ([2]; 100% Activin A (100 ng/mL) throughout Stage 1, first line with this head (r7)): 0.061% | S3c − Cdx2+/Pdx1− ([2]; 100% Activin A (100 ng/mL) throughout Stage 1, second line with this head (r9)): 1.29% | cells expressing Cdx2 at S3C [2, 17]: more | cells expressing Sox2 at S3C [2, 17]: fewer | percentage of Nkx6.1-positive cells at S5C ([3]; 5% Activin A): reduced percentage | S5c − Nkx6.1+/Isl1+ [3, 12]: 25.9% | S5c − Nkx6.1+/Isl1− [3, 12]: 25.3% | S5C Nkx6.1+/Isl1+ [3, 13]: 32.9% | S5C Nkx6.1+/Isl1+ ([3]; 10% AA (10 ng/mL Activin A) at Stage 1, Runs 3-5, listed as AA): 25.2 and 38.7 and 32.9 | S5c − Nkx6.1+/Isl1+ [3, 14]: 32.9% | S5c − Nkx6.1+/Isl1− [3, 14]: 49.5% | S5c − Nkx6.1+/Isl1− ([3]; 10% Activin A (10 ng/mL) throughout Stage 1, listed as AA): 49.5% | S5C Nkx6.1+/Isl1+ [3, 15]: 32.6% | S5C Nkx6.1+/Isl1+ ([3]; 100% AA (100 ng/mL Activin A) at Stage 1, Runs 3-5, listed as AA): 31.5 and 36.6 and 32.6 | S5c − Nkx6.1+/Isl1+ [3, 16]: 32.6% | S5c − Nkx6.1+/Isl1− [3, 16]: 41.1% | S5c − Nkx6.1+/Isl1− ([3]; 100% Activin A (100 ng/mL) throughout Stage 1, listed as AA): 41.1% | St5C yield ([4]; 10% AA (10 ng/mL Activin A) at Stage 1, Runs 4-5, listed as AA): 2.56e+06 mL⁻¹ and 4.1968e+06 mL⁻¹ | S6d7 Nkx6.1 + /Isl1+ [5, 13]: 35.4% | S6d7 Nkx6.1 + /Isl1+ [5, 15]: 37.3% | Markers on S6d7 Isl1 + /Nkx6.1+ [5, 18]: 35.4 | Markers on S6d7 Isl1 + /Nkx6.1− [5, 18]: 5.34 | Markers on S6d7 Isl1 + /Nkx6.1+ [5, 19]: 37.3 | Markers on S6d7 Isl1 + /Nkx6.1− [5, 19]: 7.38 | Markers on S6d7 Isl1 + /Nkx6.1+ [5, 20]: 34.6 | Markers on S6d7 Isl1 + /Nkx6.1− [5, 20]: 5.42 | Markers on S6d7 Isl1 + /Nkx6.1+ [5, 21]: 37.8 | Markers on S6d7 Isl1 + /Nkx6.1− [5, 21]: 7.16 | cell cluster morphology at completion of Stage 5 ([7]; 5% Activin A): altered morphology | cell cluster morphology at completion of Stage 3 ([7]; 10% or 5% Activin A at Stage 1 vs 100% Activin A): altered morphology | cell cluster morphology at completion of Stage 1 ([7]; 10% or 5% Activin A vs 100% Activin A, irregular shapes and rough edge): altered morphology
